Values of other authors, collected in article PMC6156988.

Biological target: EspFu (Escherichia coli) (UniProt P0DJ88)
UniProt P0DJ88, sequence (P0DJ88 whole entry): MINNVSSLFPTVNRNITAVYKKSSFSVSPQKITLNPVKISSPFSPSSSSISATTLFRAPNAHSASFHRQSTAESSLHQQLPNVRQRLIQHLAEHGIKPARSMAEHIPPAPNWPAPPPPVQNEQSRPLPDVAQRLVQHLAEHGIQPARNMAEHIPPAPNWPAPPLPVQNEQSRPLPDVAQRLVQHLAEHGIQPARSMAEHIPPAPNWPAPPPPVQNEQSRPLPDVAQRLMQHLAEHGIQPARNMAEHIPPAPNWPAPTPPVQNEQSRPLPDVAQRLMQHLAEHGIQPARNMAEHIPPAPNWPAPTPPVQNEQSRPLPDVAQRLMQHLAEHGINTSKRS

For IRTKS SH3 (from UniProt Q9UHR4), the Kd is given as 0.5 µM.
